Article PMC3726423

Assays:
aNOP10 (P. abyssi) = aNOP10 (P. abyssi) (UniProt Q9V0E3)
aCBF5 = assay: EMSA; conditions: EMSA: 150 mM KCl, 1.5 mM MgCl2, 0.2 mM EDTA, 20 mM HEPES pH 7.9, 65 C 10 min, 50 fmol sRNA, 200 nM proteins (Kd: 50-400 nM aCBF5); fluorescence: 300 mM NaCl …
[1] = target: aNOP10 Y41A/Y44A (P. abyssi) (UniProt Q9V0E3)
[2] = target: aCBF5;aNOP10 Y41A/Y44A (Y);L7Ae (Pyrococcus abyssi;Pyrococcus abyssi) (UniProt P62008); assay: EMSA; conditions: radiolabeled substrate, excess unlabeled sRNP; EMSA: 150 mM KCl, 1.5 mM MgCl2, 0.2 mM EDTA, 20 mM HEPES pH 7.9, 65 C 10 min, 50 fmol sRNA, 200 nM proteins (Kd: 50-400 nM aCBF5); fluorescence: 300 mM NaCl …
[3] = target: aCBF5;aNOP10;L7Ae H70A/L74A/E77A (HLE) H65A;L69A;E72A (Pyrococcus abyssi;Pyrococcus abyssi) (UniProt P62008); assay: EMSA; conditions: radiolabeled substrate, excess unlabeled sRNP; EMSA: 150 mM KCl, 1.5 mM MgCl2, 0.2 mM EDTA, 20 mM HEPES pH 7.9, 65 C 10 min, 50 fmol sRNA, 200 nM proteins (Kd: 50-400 nM aCBF5); fluorescence: 300 mM NaCl …

Chain of aNOP10 (P. abyssi) (Q9V0E3 whole entry): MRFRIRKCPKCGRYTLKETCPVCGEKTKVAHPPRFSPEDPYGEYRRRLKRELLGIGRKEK
Chain of aNOP10 Y41A/Y44A (P. abyssi) (Q9V0E3 whole entry Y41A/Y44A): as the sequence (Q9V0E3 whole entry) above, with Y41A, Y44A counted along it

Substance: L7Ae triple mutant H70A/L74A/E77A (from UniProt P62008 1-123) (natural protein)
- δ(Δε): decrease of the RNA CD signal at λmax on addition of L7Ae H70A/L74A/E77A to the wild-type aCBF5-aNOP10-Pab21 complex (M^−1.cm^−1 per nt) (aNOP10 (P. abyssi)): -0.825

Substance: GGGGAUCCCCUCCCCUCCCGCCCUCUCCGGGGAAUCGUGAACCGGGGGUUCCGGGGGAGGGGACAGU [Pab21P191 chimera]
- Kd (aCBF5): 200 nM

Substance: L7Ae (from UniProt P62008 1-123) (natural protein)
- δ(Δε): decrease of the RNA CD signal at λmax on addition of L7Ae to the aCBF5-aNOP10-Pab21 complex (M^−1.cm^−1 per nt) (aNOP10 (P. abyssi)): -1.21
- δ(Δε): decrease of the RNA CD signal at λmax on addition of wild-type L7Ae to the aCBF5-aNOP10(Y41A/Y44A)-Pab21 complex (M^−1.cm^−1 per nt) [1]: -0.82

Substance: GGGGAUGGGCCCGGCUCCCGCCCUCUCCGGGGAAUCGUGAACCGGGGGUUCCGGCCGGGCCUACAGU [Pab21 H/ACA sRNA]
- Kd (aCBF5): 125 nM

Substance: Pab21 guide + substrate RNA
- binding signal (fold decrease of CII') [2]: 2
- binding signal (fold decrease of CII') [3]: 2

Substance: GGGUAAUGGGGCCCGGCUCUCACACCUCCGGGAUCAGUGACCGGAGGGCGGUCGCCGGGCCUACACCU [Pab91P121 chimera]
- Kd (aCBF5): 200 nM
